Changes are numbered by the printed parent chain. Names may count otherwise.
T1: human MIC-1 receptor (hGFRAL, GDNF family receptor alpha like), full length (human, UniProt Q6UXV0 19-394)
T1 sequence (looked up): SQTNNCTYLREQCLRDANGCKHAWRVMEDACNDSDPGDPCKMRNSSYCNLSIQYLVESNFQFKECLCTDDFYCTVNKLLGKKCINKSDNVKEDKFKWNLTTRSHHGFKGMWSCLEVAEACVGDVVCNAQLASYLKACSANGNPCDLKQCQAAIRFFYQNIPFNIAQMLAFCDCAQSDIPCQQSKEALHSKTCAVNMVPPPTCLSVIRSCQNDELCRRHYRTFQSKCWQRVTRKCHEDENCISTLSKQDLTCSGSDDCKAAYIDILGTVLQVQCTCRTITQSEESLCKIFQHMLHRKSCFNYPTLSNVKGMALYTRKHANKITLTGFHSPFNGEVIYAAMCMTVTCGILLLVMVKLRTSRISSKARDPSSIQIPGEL

B1: MIC-1(R2A,N3E,H18E) (ligand)
chain: AAEGDHCPLGPGRCCRLETVRASLEDLGWADWVLSPREVQVTMCIGACPSQFRAANMHAQIKTSLHRLKPDTVPAPCCVPASYNPMVLIQKTDTGVSLQTYDDLLAKDCHCI
B2: MIC-1(R2A,N3E,K69E) (ligand)
chain: B1 chain with E18H, K69E
B3: MIC-1(R2A,N3E,K107E) (ligand)
chain: B1 chain with E18H, K107E
B4: MIC-1(R2A,N3E,L68E) (ligand)
chain: B1 chain with E18H, L68E
B5: MIC-1(R2A,N3E,A47E) (ligand)
chain: B1 chain with E18H, A47E
B6: MIC-1(R2A,N3E,L105E) (ligand)
chain: B1 chain with E18H, L105E
B7: MIC-1(R2A,N3E,M57E) (ligand)
chain: B1 chain with E18H, M57E
B8: MIC-1(R2A,N3E,P85E) (ligand)
chain: B1 chain with E18H, P85E
B9: MIC-1(R2A,N3E,P11E) (ligand)
chain: B1 chain with P11E, E18H
B10: MIC-1(R2A,N3E,R21E) (ligand)
chain: B1 chain with E18H, R21E
B11: MIC-1(R2A,N3E,R53E) (ligand)
chain: B1 chain with E18H, R53E
B12: MIC-1(R2A,N3E,R67E) (ligand)
chain: B1 chain with E18H, R67E
B13: MIC-1(R2A,N3E,A30E) (ligand)
chain: B1 chain with E18H, A30E
B14: AEEAES-MIC-1-Δ1-3 (ligand)
chain: AEEAESGDHCPLGPGRCCRLHTVRASLEDLGWADWVLSPREVQVTMCIGACPSQFRAANMHAQIKTSLHRLKPDTVPAPCCVPASYNPMVLIQKTDTGVSLQTYDDLLAKDCHCI
B15: AES-MIC-1-Δ1-3 (ligand)
chain: B1 chain with A2E, E3S, E18H
B16: MIC-1(R2A, N3E) (ligand)
chain: B1 chain with E18H
B17: (AEE)2AES-MIC-1-Δ1-3 (ligand)
chain: AEEAEEAESGDHCPLGPGRCCRLHTVRASLEDLGWADWVLSPREVQVTMCIGACPSQFRAANMHAQIKTSLHRLKPDTVPAPCCVPASYNPMVLIQKTDTGVSLQTYDDLLAKDCHCI
B18: (GEPS)5-MIC-1(SEQ ID NO: 1) (ligand)
chain: GEPSGEPSGEPSGEPSGEPSARNGDHCPLGPGRCCRLHTVRASLEDLGWADWVLSPREVQVTMCIGACPSQFRAANMHAQIKTSLHRLKPDTVPAPCCVPASYNPMVLIQKTDTGVSLQTYDDLLAKDCHCI
B19: SPAGSPTSTEEGTSESATPESGPG-MIC-1(SEQ ID NO: 1) (ligand)
chain: SPAGSPTSTEEGTSESATPESGPGARNGDHCPLGPGRCCRLHTVRASLEDLGWADWVLSPREVQVTMCIGACPSQFRAANMHAQIKTSLHRLKPDTVPAPCCVPASYNPMVLIQKTDTGVSLQTYDDLLAKDCHCI
B20: (AEE)6AES-MIC-1 (ligand)
chain: AEEAEEAEEAEEAEEAEEAESGDHCPLGPGRCCRLHTVRASLEDLGWADWVLSPREVQVTMCIGACPSQFRAANMHAQIKTSLHRLKPDTVPAPCCVPASYNPMVLIQKTDTGVSLQTYDDLLAKDCHCI
B21: (AEE)5AES-MIC-1-Δ1-3 (ligand)
chain: AEEAEEAEEAEEAEEAESGDHCPLGPGRCCRLHTVRASLEDLGWADWVLSPREVQVTMCIGACPSQFRAANMHAQIKTSLHRLKPDTVPAPCCVPASYNPMVLIQKTDTGVSLQTYDDLLAKDCHCI
B22: (AEE)3AES-MIC-1-Δ1-3 (ligand)
chain: AEEAEEAEEAESGDHCPLGPGRCCRLHTVRASLEDLGWADWVLSPREVQVTMCIGACPSQFRAANMHAQIKTSLHRLKPDTVPAPCCVPASYNPMVLIQKTDTGVSLQTYDDLLAKDCHCI
B23: AASPAGSPTSTEEGTSESATPESGPG-MIC-1(SEQ ID NO: 1) (ligand)
chain: AASPAGSPTSTEEGTSESATPESGPGARNGDHCPLGPGRCCRLHTVRASLEDLGWADWVLSPREVQVTMCIGACPSQFRAANMHAQIKTSLHRLKPDTVPAPCCVPASYNPMVLIQKTDTGVSLQTYDDLLAKDCHCI
B24: TSESATPESGPGTSESATPESGPG-MIC-1(R2A,N3E) (ligand)
chain: TSESATPESGPGTSESATPESGPGAAEGDHCPLGPGRCCRLHTVRASLEDLGWADWVLSPREVQVTMCIGACPSQFRAANMHAQIKTSLHRLKPDTVPAPCCVPASYNPMVLIQKTDTGVSLQTYDDLLAKDCHCI
B25: AASPAGSPTSTEEGTSESATPESGPG-MIC-1-Δ1-3 (ligand)
chain: AASPAGSPTSTEEGTSESATPESGPGGDHCPLGPGRCCRLHTVRASLEDLGWADWVLSPREVQVTMCIGACPSQFRAANMHAQIKTSLHRLKPDTVPAPCCVPASYNPMVLIQKTDTGVSLQTYDDLLAKDCHCI
B26: AAPEDEETPEQEGSGSGSGSGS-MIC-1-Δ1-3 (ligand)
chain: AAPEDEETPEQEGSGSGSGSGSGDHCPLGPGRCCRLHTVRASLEDLGWADWVLSPREVQVTMCIGACPSQFRAANMHAQIKTSLHRLKPDTVPAPCCVPASYNPMVLIQKTDTGVSLQTYDDLLAKDCHCI
B27: MIC-1(R2A,N3E,A54E) (ligand)
chain: B1 chain with E18H, A54E
B28: AAPEDEETPEQE-MIC-1-Δ1-3 (ligand)
chain: B22 chain with E2A, E3P, A4E, E5D, A7E, E8T, E9P, A10E, E11Q, S12E
B29: AAPDEGTEEETEGSGSGSGSGS-MIC-1-Δ1-3 (ligand)
chain: B26 chain with E4D, D5E, E6G, E7T, T8E, P9E, Q11T
B30: …-MIC-1-Δ1-3 (ligand)
chain: SEPATSGSETPGTSTEPSEGSAPGGDHCPLGPGRCCRLHTVRASLEDLGWADWVLSPREVQVTMCIGACPSQFRAANMHAQIKTSLHRLKPDTVPAPCCVPASYNPMVLIQKTDTGVSLQTYDDLLAKDCHCI
B31: (SEPATSGSETPG)2-MIC-1-Δ1-3 (ligand)
chain: B30 chain with T13S, S14E, T15P, E16A, P17T, E19G, G20S, S21E, A22T
B32: (SEPATSGSETPG)2-MIC-1-Δ1-3(M57E) (ligand)
chain: B30 chain with T13S, S14E, T15P, E16A, P17T, E19G, G20S, S21E, A22T, M78E
B33: (SEPATSGSETPG)2-MIC-1-Δ1-3(M57L) (ligand)
chain: B30 chain with T13S, S14E, T15P, E16A, P17T, E19G, G20S, S21E, A22T, M78L
B34: A(GPEQGQEP)3-MIC-1-Δ1-3 (ligand)
chain: AGPEQGQEPGPEQGQEPGPEQGQEPGDHCPLGPGRCCRLHTVRASLEDLGWADWVLSPREVQVTMCIGACPSQFRAANMHAQIKTSLHRLKPDTVPAPCCVPASYNPMVLIQKTDTGVSLQTYDDLLAKDCHCI
B35: SEPATSGSETPGTSESATPESGPGTSTEPS-MIC-1-Δ1-3 (ligand)
chain: SEPATSGSETPGTSESATPESGPGTSTEPSGDHCPLGPGRCCRLHTVRASLEDLGWADWVLSPREVQVTMCIGACPSQFRAANMHAQIKTSLHRLKPDTVPAPCCVPASYNPMVLIQKTDTGVSLQTYDDLLAKDCHCI

Target: T1, human MIC-1 receptor (hGFRAL, GDNF …)
Test: cell-based or functional assay

Row | Binder | Emax (%) | pERK EC50 (nM)
1 | B1 | 100 | 0.5
2 | B2 | 100 | 0.5
3 | B3 | 100 | 0.3
4 | B4 | 100 | 0.8
5 | B5 | 100 | 0.4
6 | B6 | 100 | 0.7
7 | B7 | 70 | 0.3
8 | B8 | 100 | 0.6
9 | B9 | 100 | 0.4
10 | B10 | 100 | 0.6
11 | B11 | 100 | 0.4
12 | B12 | 100 | 0.5
13 | B13 | 100 | 0.7
14 | B14 | 100 | 0.3
15 | B15 | 100 | 0.3
16 | B16 | 100 | 0.3
17 | B17 | 100 | 0.4
18 | B18 | 100 | 0.5

Row | Binder | Emax (%) | pERK EC50 (nM)
19 | B19 | 100 | 0.4
20 | B20 | 100 | 0.8
21 | B21 | 100 | 0.5
22 | B22 | 100 | 0.5
23 | B23 | 100 | 0.4
24 | B24 | 100 | 0.3
25 | B25 | 100 | 0.7
26 | B26 | 100 | 0.5
27 | B27 | 100 | 0.3
28 | B28 | 100 | 0.5
29 | B29 | 100 | 0.5
30 | B30 | 100 | 0.7
31 | B31 | 100 | 0.4
32 | B32 | 60 | 0.6
33 | B33 | 100 | 0.6
34 | B34 | 100 | 0.8
35 | B35 | 100 | 0.4
